Numbering of substitutions follows the chain as printed. Each block holds one binder with its values, some of them ahead of it.
Legend:
FcγRIIIaV = target: T1, FcγRIIIaV (human, UniProt P08637 17-208); experiment: SPR (Biacore), antibody captured, FcγR as analyte, 1:1 Langmuir fit
T1 construct: extracellular domain
Description: The antibody of interest was analyzed for its interaction with FcγR using a BiaCore™ T100, BiaCore™ A100, or BiaCore™ 4000 surface plasmon resonance system (GE Healthcare Japan Corp.). The running buffer used was HBS-EP+ (GE Healthcare Japan Corp.). The assay temperature was set to 25° C. The sensor chips used were: a chip prepared by immobilizing antigenic peptides onto Series S Sensor Chip CM5 (GE Healthcare Japan Corp.) by the amine coupling method; a chip prepared by immobilizing antigenic peptides biotinylated in advance onto Series S Sensor Chip SA (certified) (GE Healthcare Japan Corp.) through their interaction; a chip prepared by immobilizing protein L (ACTIGEN, BioVision, Inc.) onto Series S Sensor Chip CM5 (GE Healthcare Japan Corp.); and a chip prepared by immobilizing protein A/G (Thermo Fisher Scientific K.K.) onto Series S Sensor Chip CM5 (GE Healthcare Japan Corp.). The antibody of interest was captured onto any of these chips and allowed to interact with FcγR diluted with a running buffer. The antibody captured on the chip was washed off through the reaction of 10 mM glycine-HCl (pH 1.5) to regenerate the chip, which was repetitively used.

FcγRIIa(H) = target: T2, FcγRIIa(H) (human, UniProt P12318 34-217); experiment: SPR (Biacore), antibody captured on chip, FcγR as analyte; relative to GpH7-A5/GpH7-B3/GpL16-k0 = 100
T2 construct: extracellular domain; allotype H131; also called 2aH
T2 sequence: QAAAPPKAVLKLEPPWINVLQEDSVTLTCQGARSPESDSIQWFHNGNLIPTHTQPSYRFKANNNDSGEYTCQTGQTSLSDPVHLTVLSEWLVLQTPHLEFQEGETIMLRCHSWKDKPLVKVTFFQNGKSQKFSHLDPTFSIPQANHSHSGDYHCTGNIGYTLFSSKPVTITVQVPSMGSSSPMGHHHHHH

FcγRIa = target: T3, FcγRIa (human, UniProt P12314 16-292); experiment: as above
T3 construct: extracellular domain; also called 1a
T3 sequence (P12314 other isoform, or with tags, fused parts or gaps): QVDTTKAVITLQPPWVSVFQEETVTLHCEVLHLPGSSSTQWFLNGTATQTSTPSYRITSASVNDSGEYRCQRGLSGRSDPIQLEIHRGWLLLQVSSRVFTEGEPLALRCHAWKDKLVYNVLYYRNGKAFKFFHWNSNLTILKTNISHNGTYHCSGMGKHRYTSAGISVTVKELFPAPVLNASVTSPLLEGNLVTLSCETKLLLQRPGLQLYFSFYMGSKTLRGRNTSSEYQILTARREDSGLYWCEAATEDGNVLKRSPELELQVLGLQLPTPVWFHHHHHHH

FcγRIIa(R) = target: T4, FcγRIIa(R) (human, UniProt P12318 34-217); experiment: as above
T4 construct: extracellular domain; allotype R131; also called 2aR
T4 sequence: T2 sequence with H134R

FcγRIIb = target: T5, FcγRIIb (human, UniProt P31994 43-217); experiment: as above
T5 construct: extracellular domain; also called 2b
T5 sequence: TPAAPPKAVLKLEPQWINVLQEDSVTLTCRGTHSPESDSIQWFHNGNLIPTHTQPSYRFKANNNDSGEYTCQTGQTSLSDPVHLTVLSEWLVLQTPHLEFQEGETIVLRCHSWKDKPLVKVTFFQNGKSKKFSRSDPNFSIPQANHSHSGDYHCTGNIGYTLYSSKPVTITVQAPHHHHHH

FcγRIIIa = target: T6, FcγRIIIa (human, UniProt P08637 17-208); experiment: as above
T6 construct: extracellular domain; also called 3a
T6 sequence (P08637 other isoform, or with tags, fused parts or gaps): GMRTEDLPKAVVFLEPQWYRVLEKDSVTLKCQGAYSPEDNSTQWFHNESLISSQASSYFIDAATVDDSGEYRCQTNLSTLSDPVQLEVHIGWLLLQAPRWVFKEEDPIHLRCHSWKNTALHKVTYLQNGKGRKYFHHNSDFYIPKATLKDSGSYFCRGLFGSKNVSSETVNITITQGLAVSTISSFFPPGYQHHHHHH

[1] = target: T7, FcγRIIIa extracellular domain with C-terminal His tag (allotype not given) (human, UniProt P08637 17-208); experiment: SPR (Biacore), captured antibody, FcγRIIIa analyte; binding relative to GpH7-A5/GpH7-B3/GpL16-k0 = 100
T7 construct: extracellular domain; also called 3a

T1 sequence (P08637 other isoform, or with tags, fused parts or gaps): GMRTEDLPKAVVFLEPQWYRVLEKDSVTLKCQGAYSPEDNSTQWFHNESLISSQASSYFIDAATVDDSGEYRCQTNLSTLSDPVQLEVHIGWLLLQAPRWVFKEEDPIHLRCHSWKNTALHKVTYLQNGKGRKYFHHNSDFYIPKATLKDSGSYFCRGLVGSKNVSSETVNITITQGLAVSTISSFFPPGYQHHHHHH

Kd (FcγRIIIaV): 1.7 nM
B1: Kn125-L4-9 (antibody, human IgG1, kappa)
heavy 1: QDQLVQSGAEVKKPGASVKVSCKASGFNIKDTYIQWVRQAPGQGLEWMGRIDPLRKQTKYREKFEGRVTITADTSTNTAYMELSSLRSEDTAVYYCVRSGREFDYWGQGTLVTVSSASTKGPSVFPLAPSSKSTSGGTAALGCLVKDYFPEPVTVSWNSGALTSGVHTFPAVLQSSGLYSLSSVVTVPSSSLGTQTYICNVNHKPSNTKVDKKVEPKSCDKTHTCPPCPAPELLGGPSVFLFPPKPKDTLMISRTPEVTCVVVDVSHEEPEVKFNWYVDGVEVHNAKTKPREEQYNSTYRVVSVLTVLHQDWLNGKEYKCKVSNDALPMPIEETISKAKGQPREPQVYTLPPSRCELTKNQVSLSCAVKGFYPSDIAVEWESNGQPENNYKTTPPVLDSDGSFFLVSKLTVDKSRWQQGNVFSCSVMHEALHNHYTQKSLSLSP
heavy 2: QDQLVQSGAEVKKPGASVKVSCKASGFNIKDTYIQWVRQAPGQGLEWMGRIDPLRKQTKYREKFEGRVTITADTSTNTAYMELSSLRSEDTAVYYCVRSGREFDYWGQGTLVTVSSASTKGPSVFPLAPSSKSTSGGTAALGCLVKDYFPEPVTVSWNSGALTSGVHTFPAVLQSSGLYSLSSVVTVPSSSLGTQTYICNVNHKPSNTKVDKKVEPKSCDKTHTCPPCPAPEYQWGPMVFLFPPKPKDTLMISRTPEVTCVVVDVSDEEPEVKFNWYVDGVEVHNAKTKPREEQYNATYRVVSVLTVLHQDWLNGKEYKCKVSNKGGSGGSGGSALPAPIEKTISKAKGQPREPQVCTLPPSRDELTKNQVSLWCLVKGFYPSDIAVEWESNGQPENNYKTTPPVLDSDGSFFLYSKLTVDKSRWQQGNVFSCSVMHEALHNHYTQKSLSLSP
light: DIQMTQSPSSLSASVGDRVTITCRASQDIHKYIAWYQQKPGQAPRLLIQYTSTLQPGVPSRFSGSGSGTDYTFTISSLQPEDIATYYCLQYEQLRTFGGGTKVEIKRTVAAPSVFIFPPSDEQLKSGTASVVCLLNNFYPREAKVQWKVDNALQSGNSQESVTEQDSKDSTYSLSSTLTLSKADYEKHKVYACEVTHQGLSSPVTKSFNRGEC
notes: heterodimerized anti-EREG antibody: altered H240-Kn125 chain (Gly/Ser peptide in loop) with H240-Hl076 and L73-k0

He/Con 2aH (binding activity relative to GpH7-A5/GpH7-B3/GpL16-k0 x 100) (FcγRIIa(H)): 106 % of control
He/Con 1a (binding activity relative to GpH7-A5/GpH7-B3/GpL16-k0 x 100) (FcγRIa): 102 % of control
He/Con 2aR (binding activity relative to GpH7-A5/GpH7-B3/GpL16-k0 x 100) (FcγRIIa(R)): 109 % of control
He/Con 2b (binding activity relative to GpH7-A5/GpH7-B3/GpL16-k0 x 100) (FcγRIIb): 109 % of control
He/Con 3a (binding activity relative to GpH7-A5/GpH7-B3/GpL16-k0 x 100) (FcγRIIIa): 90.2 % of control
B2: GpH7-A5/GpH7-B3 variant S337_08L/GpL16-k0 (antibody, human IgG1, kappa)
heavy 1: not shown
heavy 2: not shown
light: DIVMTQSPLSLPVTPGEPASISCQASESLVHSNRNTYLHWYLQKPGQSPQLLIYKVSNRFSGVPDRFSGSGSGTDFTLKISRVEAEDVGVYYCSQNTHVPPTFGQGTKVEIERTVAAPSVFIFPPSDEQLKSGTASVVCLLNNFYPREAKVQWKVDNALQSGNSQESVTEQDSKDSTYSLSSTLTLSKADYEKHKVYACEVTHQGLSSPVTKSFNRGEC
notes: Heterodimerized anti-glypican 3 IgG1 antibody with the mutation in only one H chain (GpH7-B3 side); also called He Ab

He/Con 3a [1]: 94%
B3: GpH7-A5/GpH7-B3 variant S337_14T/GpL16-k0 (antibody, human IgG1, kappa)
heavy 1: not shown
heavy 2: not shown
light: B2 light
notes: heterodimerized anti-glypican 3 IgG1; mutation in one H chain only; also called He Ab

He/Con 2aH (binding activity relative to GpH7-A5/GpH7-B3/GpL16-k0 x 100) (FcγRIIa(H)): 102 % of control
He/Con 1a (binding activity relative to GpH7-A5/GpH7-B3/GpL16-k0 x 100) (FcγRIa): 101 % of control
He/Con 2aR (binding activity relative to GpH7-A5/GpH7-B3/GpL16-k0 x 100) (FcγRIIa(R)): 105 % of control
He/Con 2b (binding activity relative to GpH7-A5/GpH7-B3/GpL16-k0 x 100) (FcγRIIb): 103 % of control
He/Con 3a (binding activity relative to GpH7-A5/GpH7-B3/GpL16-k0 x 100) (FcγRIIIa): 80.1 % of control
B4: GpH7-A5/GpH7-B3 variant S337_11K/GpL16-k0 (antibody, human IgG1, kappa)
heavy 1: not shown
heavy 2: not shown
light: B2 light
notes: as for B2

He/Con 2aH (binding activity relative to GpH7-A5/GpH7-B3/GpL16-k0 x 100) (FcγRIIa(H)): 108 % of control
He/Con 1a (binding activity relative to GpH7-A5/GpH7-B3/GpL16-k0 x 100) (FcγRIa): 101 % of control
He/Con 2aR (binding activity relative to GpH7-A5/GpH7-B3/GpL16-k0 x 100) (FcγRIIa(R)): 111 % of control
He/Con 2b (binding activity relative to GpH7-A5/GpH7-B3/GpL16-k0 x 100) (FcγRIIb): 114 % of control
He/Con 3a (binding activity relative to GpH7-A5/GpH7-B3/GpL16-k0 x 100) (FcγRIIIa): 100 % of control
B5: GpH7-A5/GpH7-B3 variant S337_16H/GpL16-k0 (antibody, human IgG1, kappa)
heavy 1: not shown
heavy 2: not shown
light: B2 light
notes: as for B2

He/Con 2aH (binding activity relative to GpH7-A5/GpH7-B3/GpL16-k0 x 100) (FcγRIIa(H)): 108 % of control
He/Con 1a (binding activity relative to GpH7-A5/GpH7-B3/GpL16-k0 x 100) (FcγRIa): 102 % of control
He/Con 2aR (binding activity relative to GpH7-A5/GpH7-B3/GpL16-k0 x 100) (FcγRIIa(R)): 112 % of control
He/Con 2b (binding activity relative to GpH7-A5/GpH7-B3/GpL16-k0 x 100) (FcγRIIb): 119 % of control
He/Con 3a (binding activity relative to GpH7-A5/GpH7-B3/GpL16-k0 x 100) (FcγRIIIa): 93.8 % of control
B6: GpH7-A5/GpH7-B3 variant S337_20W/GpL16-k0 (antibody, human IgG1, kappa)
heavy 1: not shown
heavy 2: not shown
light: B2 light
notes: as for B2

He/Con 3a [1]: 88.3%
B7: GpH7-A5/GpH7-B3 variant S337_07I/GpL16-k0 (antibody, human IgG1, kappa)
heavy 1: not shown
heavy 2: not shown
light: B2 light
notes: as for B3

He/Con 3a [1]: 80.1%
B8: GpH7-A5/GpH7-B3 variant S337_11K/GpL16-k0 (antibody, human IgG1, kappa)
heavy 1: not shown
heavy 2: not shown
light: B2 light
notes: as for B3

He/Con 3a [1]: 90.2%
B9: GpH7-A5/GpH7-B3 variant S337_08L/GpL16-k0 (antibody, human IgG1, kappa)
heavy 1: not shown
heavy 2: not shown
light: B2 light
notes: as for B3

He/Con 3a [1]: 100%
B10: GpH7-A5/GpH7-B3 variant S337_16H/GpL16-k0 (antibody, human IgG1, kappa)
heavy 1: not shown
heavy 2: not shown
light: B2 light
notes: as for B3

He/Con 2aH (binding activity relative to GpH7-A5/GpH7-B3/GpL16-k0 x 100) (FcγRIIa(H)): 107 % of control
He/Con 1a (binding activity relative to GpH7-A5/GpH7-B3/GpL16-k0 x 100) (FcγRIa): 102 % of control
He/Con 2aR (binding activity relative to GpH7-A5/GpH7-B3/GpL16-k0 x 100) (FcγRIIa(R)): 111 % of control
He/Con 2b (binding activity relative to GpH7-A5/GpH7-B3/GpL16-k0 x 100) (FcγRIIb): 113 % of control
He/Con 3a (binding activity relative to GpH7-A5/GpH7-B3/GpL16-k0 x 100) (FcγRIIIa): 88.3 % of control
B11: GpH7-A5/GpH7-B3 variant S337_07I/GpL16-k0 (antibody, human IgG1, kappa)
heavy 1: not shown
heavy 2: not shown
light: B2 light
notes: as for B2

He/Con 2aH (binding activity relative to GpH7-A5/GpH7-B3/GpL16-k0 x 100) (FcγRIIa(H)): 110 % of control
He/Con 1a (binding activity relative to GpH7-A5/GpH7-B3/GpL16-k0 x 100) (FcγRIa): 102 % of control
He/Con 2aR (binding activity relative to GpH7-A5/GpH7-B3/GpL16-k0 x 100) (FcγRIIa(R)): 112 % of control
He/Con 2b (binding activity relative to GpH7-A5/GpH7-B3/GpL16-k0 x 100) (FcγRIIb): 114 % of control
He/Con 3a (binding activity relative to GpH7-A5/GpH7-B3/GpL16-k0 x 100) (FcγRIIIa): 94 % of control
B12: GpH7-A5/GpH7-B3 variant S337_14T/GpL16-k0 (antibody, human IgG1, kappa)
heavy 1: not shown
heavy 2: not shown
light: B2 light
notes: as for B2

He/Con 3a [1]: 91.2%
B13: GpH7-A5/GpH7-B3 variant S337_19Q/GpL16-k0 (antibody, human IgG1, kappa)
heavy 1: not shown
heavy 2: not shown
light: B2 light
notes: as for B3

He/Con 3a [1]: 93.8%
B14: GpH7-A5/GpH7-B3 variant S337_20W/GpL16-k0 (antibody, human IgG1, kappa)
heavy 1: not shown
heavy 2: not shown
light: B2 light
notes: as for B3

He/Con 2aH (binding activity relative to GpH7-A5/GpH7-B3/GpL16-k0 x 100) (FcγRIIa(H)): 104 % of control
He/Con 1a (binding activity relative to GpH7-A5/GpH7-B3/GpL16-k0 x 100) (FcγRIa): 101 % of control
He/Con 2aR (binding activity relative to GpH7-A5/GpH7-B3/GpL16-k0 x 100) (FcγRIIa(R)): 108 % of control
He/Con 2b (binding activity relative to GpH7-A5/GpH7-B3/GpL16-k0 x 100) (FcγRIIb): 109 % of control
He/Con 3a (binding activity relative to GpH7-A5/GpH7-B3/GpL16-k0 x 100) (FcγRIIIa): 91.2 % of control
B15: GpH7-A5/GpH7-B3 variant S337_19Q/GpL16-k0 (antibody, human IgG1, kappa)
heavy 1: not shown
heavy 2: not shown
light: B2 light
notes: as for B2

He/Con 3a [1]: 94.9%
B16: GpH7-A5/GpH7-B3 variant S337_15Y/GpL16-k0 (antibody, human IgG1, kappa)
heavy 1: not shown
heavy 2: not shown
light: B2 light
notes: as for B3

He/Con 2aH (binding activity relative to GpH7-A5/GpH7-B3/GpL16-k0 x 100) (FcγRIIa(H)): 106 % of control
He/Con 1a (binding activity relative to GpH7-A5/GpH7-B3/GpL16-k0 x 100) (FcγRIa): 101 % of control
He/Con 2aR (binding activity relative to GpH7-A5/GpH7-B3/GpL16-k0 x 100) (FcγRIIa(R)): 107 % of control
He/Con 2b (binding activity relative to GpH7-A5/GpH7-B3/GpL16-k0 x 100) (FcγRIIb): 109 % of control
He/Con 3a (binding activity relative to GpH7-A5/GpH7-B3/GpL16-k0 x 100) (FcγRIIIa): 94.9 % of control
B17: GpH7-A5/GpH7-B3 variant S337_15Y/GpL16-k0 (antibody, human IgG1, kappa)
heavy 1: not shown
heavy 2: not shown
light: B2 light
notes: as for B2

— US20260167699A1 (Chugai, published 2026)
